# Measurements published in the DeepSol protein solubility set.
# Test: soluble on expression in E. coli; label from the status in PepcDB or PDB records
row,Sequence,soluble on expression in E. coli
1,MGSDKIHHHHHHMQVIIVEDEKTLRFSPLADLKPVYDLVTGCFSLRQRFVEALGARQKLTWHLRRHIAPWFAEANPGSVVNRVLEDEVLLVNGRLICDAAVTQFIDARKIAPGEALIQNGNLLFCRTTAEPLHVLETVFPDTIDGMVLAGAFSCVEVSGFRLIENLWDPVAMHPAMMREDGAALALGRIEGEVHPSAILVNPSAITVEKGAEVKAGAVLDASDGFIYIGAGAVVEPVALLMENVYIAPGARVKSGARIYSNVCIGGGAKAGGEIEDSIMEPFSNKQHDGFLGHSYISSWCNLGAGTDTSDLKNNYSPVSIETAHGKMATGQQFLGLLMGEHSKCSIGTRFNTGTVVGISSNIFGNGMPAKYVPSFSWGDGNPGTARYEADKAVETARKVMARRKVEMSAAYEAMFRAVAGE,not soluble
2,MGSDKIHHHHHHMKLQQLEYFMAVSKYASFTLASQKLHTSQPYLSTQLKELERELGASLILRDKKHCRLSPAGEVVAKRTEMIFALIKEAQEEINELVTQGSTTTIRIGTNLIDIDKAFGEVLLLFNQSYPYVSIDFKYYYDLETALETDLIDIGIGIFLDTSIPLEKELIYTESYLLCVNKNHPLAHADSVTIDEIRSLPFAAYSDQVYEKKVFKRWERKINWENRQIVIELPSLHLVLDMVQREKACSILPYSLTDELNRRNLVGIPLEDSPERAIYLVQNNHHGHCEAHRYLFEQLRYLF,not soluble
3,PIDLITVGSLIELQDSQNPFQYWIVSVIENVGGRLRLRYVGLEDTESYDQWLFYLDYRLRPVGWCQENKYRMDPPSEIYPLKMASEWKCTLEKSLIDAAKFPLPMEVFKDHADL,soluble
4,IGQVNYNIGFNMADSRSFVDKYPNKSKSLSTYYKDQELGAIWGYVTHGIAKSQSEMDEWTKDNKPSWGSGWGEGDIMFEDLNGDKVINEGANTVDDPGDRKIIGNSTPRFRFGLDLGVEWKGIDFSMFWQGVAKRDLWLDGPMFWGISGGEWQSTGLKEHLDYYRPENTTSVFGPNTNAYFPKMYMSKDMNQKVQTRYLQNGAYARLKNIQLGYTFPTQIINKLHMQKLRVYVSAENVLTITSLPSGFDPETTYSNYSDGNSGKTYPLQTTISFGLNATF,not soluble
5,MGSDKIHHHHHHMRNIVFTGKGGVGKTSIAASTAVRAAALGYKTLVISTDPAHSLGDSFDIELGPSPVKVAENLWGQEVSVYGDLSLNWEVVREHFAHLMEVQGIEGIYVEEMGVLPGMEELFSLSYIKRYNESSEYDLLVVDCAPTGETLRLLSIPETFGWMLKLMRNMEKYVVKPVIRPLSKRISRLHDFVPDTDVYDQVDHLFSSVEGIIELLSDNSKTTVRLVMNPEKMVVKESMRALTYLNLYNITIDQIVINRVYMDDVDGQYFKGWKEIQKKYIAEIESSFGPIPITRVPLFRTEVLGLEMLKKVGETVYGDRNPLDIFYHEEHTEIVKPGEGHYVMKLRLPFVFDNRMEANIVQVGDLLTIRIGNHQKSVVLPTFLAGMKVTHAGYEEKWLAIEFRKKETAK,not soluble
6,MGSDKIHHHHHHMQFEPALQQGRLVKRYKRFLADIKLADGSEMTIHCPNTGSMRNCLFPGEAVWFSTSANPKRKYAYTWELMGTPNGGFIGIHSGSANALAEEAIHSGIIKELTGYDTLSREVKYGDENSRIDILLQGAQKPDCYIEVKSCTLLEDGQGFFPDAVSLRGQKHLRELMHMANLGHRAVLLFVVQHSEIFSVAPAAHIDHEYANLLKKATLSGVEVLAYRCEMSPTEIRLAQACPVRV,not soluble
7,MPKILWKSLHLCFPSNLTKCYSSPCIPPSSADPDGIIQPNRPSIVLLNNFNLLYHNDNHHHPHRVIDLPSSSTTTTPAATSSSSTSSYESDISPDVSAAFASRRFFFSSPGRSNAITDSPEPRSREFSDNYDDATITSTKKKKKKVYDNSVTTTTTRLISGGTAVTQHVDSPDPLTDFRRSMQEMIDAAIDAGELSRDPNDGYDFLDELLLTYLSLNPADTHKFVIRAFSDILVSLLSEERRIC,soluble
8,MGSDKIHHHHHHMDKLLFGISGIPNGSGNEKFTYETGIDYLKSIGLDAMELPFVRSVNITNKNREGILNKKHEKDFYLSAHGSYFINLNAEENEKQEASLKRIVSGADALKSVEGKSLIFHPGFYLKDSKEETFNTIKENLKKLPDIGVDYRLETTGKPTQFGSLEENVALASEVKTCKLCIDFCHLHARYNGLFKTIEDFDKVLSYVGEKLGEAALNDMHIHMSGINYGIKGEKNHLPFKESDFPYEKCIKSFVKFNIKGCIICESPLLEKDSLLLKSIYEAS,not soluble
9,MKLYNLKDHNEQVSFAQAVTQGLGKNQGLFFPHDLPEFSLTEIDEMLKLDFVTRSAKILSAFIGDEIPQEILEERVRAAFAFPAPVANVESDVGCLELFHGPTLAFKDFGGRFMAQMLTHIAGDKPVTILTATSGDTGAAVAHAFYGLPNVKVVILYPRGKISPLQEKLFCTLGGNIETVAIDGDFDACQALVKQAFDDEELKVALGLNSANSINISRLLAQICYYFEAVAQLPQETRNQLVVSVPSGNFGDLTAGLLAKSLGLPVKRFIAATNVNDTVPRFLHDGQWSPKATQATLSNAMDVSQPNNWPRVEELFRRKIWQLKELGYAAVDDETTQQTMRELKELGYTSEPHAAVAYRALRDQLNPGEYGLFLGTAHPAKFKESVEAILGETLDLPKELAERADLPLLSHNLPADFAALRKLMMNHQ,soluble
10,SEQTEVLKPRTLADLIRILHQLFAGDEVNVEEVQAIMEAYESDPTEWAMYAKFDQYRYTRNLVDQGNGKFNLMILCWGEGHGSSIHDHTNSHCFLKMLQGNLKETLFAWPDKKSNEMVKKSERVLRENQCAYINDSVGLHRVENISHTEPAVSLHLYSPPFDTCHAFDQRTGHKNKVTMTFHSKFGIRTPNATSGSLENN,soluble
11,MNMLEKVQSQLEHLSKSERKVADVILAAPGRSIHLSIAMLAQEANVSEPTVNRFCRSMNTRGFPDFKLHLAQSLANGTPYVNRNVDEDDSVEAYTGKIFESAMASLDHVRQSLDKSAVNRAVDLLTQAKKIAFFGLGSSAAVAHDAMNKFFRFNVPVIYSDDIVLQRMSCMNCSDDDVVVLISHTGRTKSLVELAQLARENDAMVIALTSAGTPLAREATLAITLDVPEDTDIYMPMVSRLAQLTVIDVLATGFTLRRGAKFRDNLKRVKEALKESRFDKELLIKSDDR,not soluble
12,MKNIVIVGGGVAGTITANYLAMKLREEIREKNVSITLISDREKQLYEPGLLYLIFNRMEESEILKDVKYLLDPLIELKIARATKIDAEKSRVELENGEVVNYDYLVIATGSRVAPEEMPGLVDGGHWFYNLDGAKRLREELARFKKGKVVVSVMGIPHKCPVAPIEVTFMLHEFFKIHGVRKDVELLYTYPINRVFTMEEVSDLVQKMFDERGINYKTFFNPVSIDPEKKVIETLEGEEEPYDLLIAIPPHKGSQVIIDSGLGDRDGWVPTDRYTLKAEGLENVYVVGDATNLPVSKAGSVAHFEAEVVAENIAAEIKGLPPTARYFGKAMCFIETGFSEATYIWFDYETPPKFVKPNKFIHWMKLAYNRMYWLTARGMLLEHHHHHH,soluble
13,GSADETLCQTKVLLDIFTGVRLYLPPSTPDFSRLRRYFVAFDGDLVQEFDMTSATHVLGSRDKNPAAQQVSPEWIWACIRKRRLVAPC,soluble
14,MGHHHHHHSHMSNPRSLEEEKYDMSGARLALILCVTKAREGSEEDLDALEHMFRQLRFESTMKRDPTAEQFQEELEKFQQAIDSREDPVSCAFVVLMAHGREGFLKGEDGEMVKLENLFEALNNKNCQALRAKPKVYIIQACRGEQRDPGETVGGDEIVMVIKDSPQTIPTYTDALHVYSTVEGYIAYRHDQKGSCFIQTLVDVFTKRKGHILELLTEVTRRMAEAELVQEGKARKTNPEIQSTLRKRLYLQ,not soluble
15,MNNSLSDKYNSSSTTLCSSVHAESCPTDTEDAIIRNIKLPGFRGNISRALSQKSNSPSGCRTPTPKTAPPSYEQFQVLRRNSMKSSVQPQRNGILSPAPPVPTSSRANTITVNGAHVQQAMNRIDMSTDSANTILRSPYSTRSDSITSVDSGQCSGDQIERRSNCSTRQESKDDDDTGMPSYARMASTMDHVLRTSSALYTLLSSALDPATCRDLLAKSSVFIQLLESSPCTNYLPKTEMARLKMNVQELQKNRDKGIIDMNNMTNFFAILLRKSIESVLLVFVRIISKNLCESNGKDRLTPICLEHLIHICLFGDELCIEAIQKGCISSVIRIMKNDQPQENTLRFLLRTLAVLCGVSKGALALLTQGGLDLVIDRLLSISSSICSVEAAGILTQLTNPQSAFIRLNHVEPIISRLLDLIDQCKSGDSLLLATAALNNVTLQNPNGVDIMYRNNSIRRLISAYNRENCATVFVQEQIVTAFSRLAARHLDHQMVDQNAIPVLLEFLSLTHPIHADYCRRIRYKAAVCIGTLANSEIGLKALYGNNAYAILSNVLYDDNNSSNPFNMICNNIRTKLESKYQSESAV,not soluble
16,MSQSRHRAEAPPLEREDSGTFSLGKMITAKPGKTPIQVLHEYGMKTKNIPVYECERSDVQIHVPTFTFRVTVGDITCTGEGTSKKLAKHRAAEAAINILKANASICFAVPDPLMPDPSKQPKNQLNPIGSLQELAIHHGWRLPEYTLSQEGGPAHKREYTTICRLESFMETGKGASKKQAKRNAAEKFLAKFSNISPENHISLTNVVGHSLGCTWHSLRNSPGEKINLLKRSLLSIPNTDYIQLLSEIAKEQGFNITYLDIDELSANGQYQCLAELSTSPITVCHGSGISCGNAQSDAAHNALQYLKIIAERK,soluble
17,MGSDKIHHHHHHMNDWDRLYDRAETLLSRLEGLLRADAPEPEWNAAAFRWRKTGRSGFIEPVRYPDSITFEALQSIGRQKSLVDQNTRQFVRHHPANNVLLTGARGTGKSSLVKAMLNKYAADGLRLIEVEKHHLVDLPEIVEKVYRRPERFILYCDDLSFESGEPGYKALKVVLDGSIATASENVLVYATSNRRHLMPEYRVDNQDTRHTGGEIHPSEAVEEKTSLSERFGLWISFYPFDQEQYLDIVARWLAYFGIDKMDDSIREEALRWALGRGSRNGRVAWQFARDRAGREKAGQKPADKTEFRAEQ,not soluble
18,MGSDKIHHHHHHMVHGVPCFVAHRGYPALYPENSLVGIRAAVQAGARYVEIDIQLSRQLTPYLCHDDNLKRLTGRNAYLTRLKDDEIDTLTVSCPDVTCSSGTEPAPIPRLAEFCRYLAQHPQVTTFVEIKSESIARFGLSKTMDAILPVIDVVHTQCVLISFDWELIALIKSHQMYKTGWIIEHWTDEQSAMAARLQPDYLFSSIRCLPEKLDQLWPGPWQWVIYTVDDYATALGYAEAGITLIETDTISTLLAP,not soluble
19,MGSDKIHHHHHHMITGFASSLYKKYEGSTFELLADTVFSALEMAGLDKNYVDGIYLTYLPGTFDGYANSHFFTNQVAQYLGIRPKFTQIFDYGGASALSMIHRAYKAIKAGEGETILCIVGGKATELRNKGVTVDAIDKAYPNVSLTPFDRLFRGLNDLNPVSDYALVANRHKYLFKSTDEQRALIAVRQRFNAMQNSKAMFKDPLTIEQVLKSPLVSYPLHLLEIVYPIDGFHVFVVSKRSSKSALTNIDILGYGEAHWPFMPTELDEIVYTPAVESSKGLLNGRIDAFELYDSFTITVMLQVEDIGLAEKGKGGSFFENHDTTFKGDVPINTGGGSLNTGQPAYMSGGVILEEALLQLNDMADGHQVKGTDVVFLNGIGGWNRSHSVSLVLGEKK,not soluble
20,MDSNDLEASFTSRLPPEIVAALKRKSSRDPNSRFPRKLHMLLTYLASNPQLEEEIGLSWISDTEFKMKKKNVALVMGIKLNTLNVNLRDLAFEQLQHDKGGWTQWKRSGFTRNSVFEDPTQNDSPMHHHHHH,soluble
21,MKKSLIAFILIFMLVLSGCGMKDNDKQGSNDNGSSKSPYHRIVSLMPSNTEILYELGLGKYIVGVSTVDDYPKDVKKGKKQFDALNLNKEELLKAKPDLILAHESQKATANKVLSSLEKQGIKVVYVKDAQSIDETYNTFKQIGKLTHHDKQAEQLVEETKDNIDKVIDSIPAHHKKSKVFIEVSSKPEIYTAGKHTFFNDMLEKLEAQNVYSDINGWNPVTKESIIKKNPDILISTEAKTRSDYMDIIKKRGGFNKINAVKNTRIEVVNGDEVSRPGPRIDEGLKELRDAIYRK,not soluble
